Experimental data: paper PMC7159911 (Science Advances, 2020)

Molecular target: the molecule itself
Test: cryo-EM structure

B1: rBAT (SLC3A1), human, N-terminal 10x His tag (natural protein, UniProt Q07837-1 1-685, looked up)
chain: MAEDKSKRDSIEMSMKGCQTNNGFVHNEDILEQTPDPGSSTDNLKHSTRGILGSQEPDFKGVQPYAGMPKEVLFQFSGQARYRIPREILFWLTVASVLVLIAATIAIIALSPKCLDWWQEGPMYQIYPRSFKDSNKDGNGDLKGIQDKLDYITALNIKTVWITSFYKSSLKDFRYGVEDFREVDPIFGTMEDFENLVAAIHDKGLKLIIDFIPNHTSDKHIWFQLSRTRTGKYTDYYIWHDCTHENGKTIPPNNWLSVYGNSSWHFDEVRNQCYFHQFMKEQPDLNFRNPDVQEEIKEILRFWLTKGVDGFSLDAVKFLLEAKHLRDEIQVNKTQIPDTVTQYSELYHDFTTTQVGMHDIVRSFRQTMDQYSTEPGRYRFMGTEAYAESIDRTVMYYGLPFIQEADFPFNNYLSMLDTVSGNSVYEVITSWMENMPEGKWPNWMIGGPDSSRLTSRLGNQYVNVMNMLLFTLPGTPITYYGEEIGMGNIVAANLNESYDINTLRSKSPMQWDNSSNAGFSEASNTWLPTNSDYHTVNVDVQKTQPRSALKLYQDLSLLHANELLLNRGWFCHLRNDSHYVVYTRELDGIDRIFIVVLNFGESTLLNLHNMISGLPAKMRIRLSTNSADKGSKVDTSGIFLDKGEGLIFEHNTKNLLHRQTAFRDRCFVSNRACYSSVLNILYTSC
modifications: five glycosylation sites in the extracellular domain (residues 111 to 685)
Question: How did the “stoichiometry N” value turn out when B1 was run?
Answer: 2
